# Assay results as given in the supplement of paper PMC9112550, “Optimization of the antimicrobial peptide Bac7 by deep mutational scanning” (BMC Biology, 2022).
# Test system: Escherichia coli TOP10
# Test: shrunken log2 fold change of peptide-encoding DNA abundance (4.5 h post-induction vs induction); higher = less antimicrobial activity (less host growth inhibition)
# Settings: time post-induction: 4.5 h; library: site-saturation at positions 5, 18, 19, 20
# 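Also: peptides expressed intracellularly from a pBAD plasmid library in pooled LB shake-flask culture, induced with 0.3% L-arabinose, DNA abundance read by NGS, three biological replicates, DESeq2 with apeglm shrinkage.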
row,Sequence,shrunken log2 fold change
1,RRIRCRPPRLPRPRPRPRDGPRP,1
2,RRIRVRPPRLPRPRPRPWSIPRP,-0.0192
3,RRIRQRPPRLPRPRPRPTVDPRP,0.349
4,RRIRGRPPRLPRPRPRPQHQPRP,0.524
5,RRIRGRPPRLPRPRPRPMPDPRP,0.13
6,RRIRIRPPRLPRPRPRPLDEPRP,-0.287
7,RRIRSRPPRLPRPRPRPSWIPRP,-0.363
8,RRIRARPPRLPRPRPRPFMMPRP,-0.105
9,RRIRIRPPRLPRPRPRPVIFPRP,-0.402
10,RRIRCRPPRLPRPRPRPLWSPRP,-0.233
11,RRIRERPPRLPRPRPRPLETPRP,-0.0311
12,RRIRRRPPRLPRPRPRPMFAPRP,0.24
13,RRIRCRPPRLPRPRPRPLIEPRP,-0.0593
14,RRIRQRPPRLPRPRPRPIANPRP,-0.0128
15,RRIRGRPPRLPRPRPRPCLMPRP,0.0827
16,RRIRVRPPRLPRPRPRPNFGPRP,-0.098
17,RRIRVRPPRLPRPRPRPMIFPRP,-0.213
18,RRIRARPPRLPRPRPRPKIGPRP,0.458
19,RRIRHRPPRLPRPRPRPTIGPRP,-0.0227
20,RRIRNRPPRLPRPRPRPELFPRP,-0.0281
21,RRIRIRPPRLPRPRPRPRSGPRP,0.242
22,RRIRVRPPRLPRPRPRPRQIPRP,0.0436
23,RRIRARPPRLPRPRPRPRFTPRP,0.267
24,RRIRGRPPRLPRPRPRPKNWPRP,0.466
25,RRIRSRPPRLPRPRPRPPKDPRP,-0.0903

row,Sequence,shrunken log2 fold change
1,RRIRHRPPRLPRPRPRPAKPPRP,0.533
2,RRIRFRPPRLPRPRPRPWDWPRP,0.149
3,RRIRQRPPRLPRPRPRPYLHPRP,-0.117
4,RRIRIRPPRLPRPRPRPFIGPRP,-0.227
5,RRIRKRPPRLPRPRPRPPMVPRP,0.296
6,RRIRVRPPRLPRPRPRPTTVPRP,-0.241
7,RRIRCRPPRLPRPRPRPFYGPRP,-0.262
8,RRIRTRPPRLPRPRPRPMTTPRP,0.000642
9,RRIRDRPPRLPRPRPRPVFPPRP,0.108
10,RRIRNRPPRLPRPRPRPCLKPRP,-0.315
11,RRIRCRPPRLPRPRPRPMSVPRP,-0.0655
12,RRIRTRPPRLPRPRPRPVGTPRP,-0.201
13,RRIRWRPPRLPRPRPRPTSIPRP,-0.22
14,RRIRNRPPRLPRPRPRPTYKPRP,-0.196
15,RRIRKRPPRLPRPRPRPNQCPRP,0.0387
16,RRIRRRPPRLPRPRPRPEESPRP,1.5
17,RRIRWRPPRLPRPRPRPRATPRP,1.26
18,RRIRNRPPRLPRPRPRPDKFPRP,-0.188
19,RRIRRRPPRLPRPRPRPGQWPRP,0.312
20,RRIRHRPPRLPRPRPRPTWMPRP,3.02
21,RRIRIRPPRLPRPRPRPHYLPRP,-0.0913
22,RRIRPRPPRLPRPRPRPFGEPRP,0.0159
23,RRIRCRPPRLPRPRPRPFVVPRP,-0.633
24,RRIRARPPRLPRPRPRPYNMPRP,-0.809
25,RRIRRRPPRLPRPRPRPWQEPRP,0.00489

row,Sequence,shrunken log2 fold change
1,RRIRQRPPRLPRPRPRPSYKPRP,-0.54
2,RRIRDRPPRLPRPRPRPYPRPRP,0.0039
3,RRIRARPPRLPRPRPRPISCPRP,0.0406
4,RRIRPRPPRLPRPRPRPCVKPRP,-0.139
5,RRIRNRPPRLPRPRPRPRKKPRP,0.163
6,RRIRNRPPRLPRPRPRPHQLPRP,-0.0583
7,RRIRHRPPRLPRPRPRPQEIPRP,-0.19
8,RRIRERPPRLPRPRPRPPAAPRP,0.252
9,RRIRVRPPRLPRPRPRPWAKPRP,-0.00459
10,RRIRNRPPRLPRPRPRPPCHPRP,-0.386
11,RRIRERPPRLPRPRPRPSDGPRP,-0.166
12,RRIRERPPRLPRPRPRPWECPRP,-0.0135
13,RRIRFRPPRLPRPRPRPSYEPRP,1.66
14,RRIRLRPPRLPRPRPRPFGIPRP,-0.255
15,RRIRERPPRLPRPRPRPDPAPRP,2.64
16,RRIRGRPPRLPRPRPRPLNMPRP,-0.114
17,RRIRARPPRLPRPRPRPAKSPRP,0.061
18,RRIRPRPPRLPRPRPRPRTHPRP,0.107
19,RRIRLRPPRLPRPRPRPFAQPRP,0.18
20,RRIRCRPPRLPRPRPRPVLVPRP,-0.0168
21,RRIRNRPPRLPRPRPRPHIDPRP,-0.186
22,RRIRMRPPRLPRPRPRPRVPPRP,0.83
23,RRIRKRPPRLPRPRPRPEFEPRP,1.34
24,RRIRDRPPRLPRPRPRPMKHPRP,-0.245
25,RRIRKRPPRLPRPRPRPSWYPRP,-0.519

row,Sequence,shrunken log2 fold change
1,RRIRSRPPRLPRPRPRPEEQPRP,0.64
2,RRIRERPPRLPRPRPRPKDPPRP,0.0145
3,RRIRTRPPRLPRPRPRPYFHPRP,-0.909
4,RRIRIRPPRLPRPRPRPKYNPRP,-1.01
5,RRIRQRPPRLPRPRPRPMLNPRP,0.014
6,RRIRDRPPRLPRPRPRPWMWPRP,0.00708
7,RRIRLRPPRLPRPRPRPVNEPRP,-0.0825
8,RRIRMRPPRLPRPRPRPGEDPRP,0.118
9,RRIRGRPPRLPRPRPRPNTTPRP,0.325
10,RRIRLRPPRLPRPRPRPQGFPRP,-0.0528
11,RRIRTRPPRLPRPRPRPTKEPRP,-0.0327
12,RRIRGRPPRLPRPRPRPYDQPRP,0.0878
13,RRIRARPPRLPRPRPRPQVQPRP,0.0275
14,RRIRSRPPRLPRPRPRPFKQPRP,-0.468
15,RRIRHRPPRLPRPRPRPPRKPRP,-0.0559
16,RRIRQRPPRLPRPRPRPETWPRP,0.00978
17,RRIRLRPPRLPRPRPRPDVSPRP,0.0432
18,RRIRDRPPRLPRPRPRPDWMPRP,0.0771
19,RRIRSRPPRLPRPRPRPHSGPRP,0.0329
20,RRIRTRPPRLPRPRPRPTQTPRP,-0.0408
21,RRIRFRPPRLPRPRPRPQMGPRP,-0.209
22,RRIRPRPPRLPRPRPRPMKTPRP,-0.0446
23,RRIRQRPPRLPRPRPRPWVHPRP,-0.0494
24,RRIRYRPPRLPRPRPRPEATPRP,0.28
25,RRIRSRPPRLPRPRPRPGDHPRP,-0.338

row,Sequence,shrunken log2 fold change
1,RRIRFRPPRLPRPRPRPREKPRP,-0.0136
2,RRIRNRPPRLPRPRPRPNMIPRP,-0.697
3,RRIRPRPPRLPRPRPRPWNCPRP,-0.134
4,RRIRLRPPRLPRPRPRPIYEPRP,-0.291
5,RRIRYRPPRLPRPRPRPDQRPRP,-0.24
6,RRIRVRPPRLPRPRPRPDARPRP,0.262
7,RRIRYRPPRLPRPRPRPWVPPRP,-0.0218
8,RRIRTRPPRLPRPRPRPDNHPRP,-1.07
9,RRIRPRPPRLPRPRPRPLVRPRP,0.138
10,RRIRARPPRLPRPRPRPCFGPRP,0.0532
11,RRIRHRPPRLPRPRPRPECEPRP,0.16
12,RRIRRRPPRLPRPRPRPHNIPRP,-0.127
13,RRIRERPPRLPRPRPRPVRTPRP,0.496
14,RRIRLRPPRLPRPRPRPAITPRP,-0.252
15,RRIRVRPPRLPRPRPRPDFMPRP,-0.0875
16,RRIRRRPPRLPRPRPRPIYAPRP,3.39
17,RRIRIRPPRLPRPRPRPHMVPRP,-0.181
18,RRIRTRPPRLPRPRPRPYKYPRP,-1.14
19,RRIRMRPPRLPRPRPRPDAVPRP,3.73
20,RRIRARPPRLPRPRPRPVGCPRP,0.768
21,RRIRTRPPRLPRPRPRPETKPRP,0.00321
22,RRIRWRPPRLPRPRPRPYKCPRP,0.0561
23,RRIRLRPPRLPRPRPRPIMCPRP,0.02
24,RRIRERPPRLPRPRPRPIHEPRP,0.0218
25,RRIRVRPPRLPRPRPRPNEPPRP,0.097
